Results published in patent US7799901B2, “Modulators of the function of FAS receptors and other proteins” (Yeda Research and Development Co. Ltd., priority 1995, dated 2010).
Entries after “also recorded” stand apart in the source; their conditions may differ.

T1: MORT1 (Homo sapiens, UniProt Q13158)
T1 sequence (Q13158 1-208): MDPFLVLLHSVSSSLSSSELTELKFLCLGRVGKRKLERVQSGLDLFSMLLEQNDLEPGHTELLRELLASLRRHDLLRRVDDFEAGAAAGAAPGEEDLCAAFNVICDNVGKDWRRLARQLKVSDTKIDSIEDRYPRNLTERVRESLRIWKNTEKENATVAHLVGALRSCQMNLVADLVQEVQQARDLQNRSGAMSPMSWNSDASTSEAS

B1: MACHβ1: MACH isoform, cDNA SEQ ID NO: 4, amino acid SEQ ID NO: 5; lacks the CED3/ICE homology region (protein)
chain: MDFSRNLYDIGEQLDSEDLASLKFLSLDYIPQRKQEPIKDALMLFQRLQEKRMLEESNLSFLKELLFRINRLDLLITYLNTRKEEMERELQTPGRAQISAYRVMLYQISEEVSRSELRSFKFLLQEEISKCKLDDDMNLLDIFIEMEKRVILGEGKLDILKRVCAQINKSLLKIINDYEEFSKERSSSLEGSPDEFSNDFGQSLPNEKQTSGILSDHQQSQFCKSTGESAQTSQH
B2: MACHα1 (C360S): MACHα1 mutant in which the catalytic cysteine Cys360 is replaced by Ser (protein)
chain: MDFSRNLYDIGEQLDSEDLASLKFLSLDYIPQRKQEPIKDALMLFQRLQEKRMLEESNLSFLKELLFRINRLDLLITYLNTRKEEMERELQTPGRAQISAYRVMLYQISEEVSRSELRSFKFLLQEEISKCKLDDDMNLLDIFIEMEKRVILGEGKLDILKRVCAQINKSLLKIINDYEEFSKERSSSLEGSPDEFSNGEELCGVMTISDSPREQDSESQTLDKVYQMKSKPRGYCLIINNHNFAKAREKVPKLHSIRDRNGTHLDAGALTTTFEELHFEIKPHDDCTVEQIYEILKIYQLMDHSNMDCFICCILSHGDKGIIYGTDGQEAPIYELTSQFTGLKCPSLAGKPKVFFIQASQGDNYQKGIPVETDSEEQPYLEMDLSSPQTRYIPDEADFLLGMATVNNCVSYRNPAEGTWYIQSLCQSLRERCPRGDDILTILTEVNYEVSNKDDKKNMGKQMPQPTFTLRKKLVFPSD

Assays:
MORT1 = biological target: T1, MORT1; test: Co-immunoprecipitation with co-expressed MORT1 from HeLa cell lysates; format: binding; design: expressed in transfected cells; host or cells: HeLa cells; details: HeLa cells; FLAG-tagged MACH, HA-tagged MORT1
Description: It has been shown also to contribute to, though not to suffice in, the self association of MORT-1 (see Example 1). […] To further assess the involvement of the MORT modules in these interactions, deletion mutants of MACHβ1, fused with the FLAG octapeptide (FLAG-MACHβ1), were expressed in HeLa cells and assessed for their binding in vitro to bacterial-produced […] fusion protein (GST-MORT-1). […] FIGS. 9A and 9B show the results (autoradiograms) of the in vitro interaction of MACHβ1 and its deletion mutants with MORT-1. Briefly, 35 [S] metabolically labeled MACHβ1, MACHβ1 fused at its N-terminus to the FLAG octapeptide (FLAG-MACHβ1), C-terminus truncation mutants of FLAG-MACHβ1, and, as a control, luciferase, were produced in transfected HeLa cells. […]
Testing further if MACHα1 can bind to MORT1 also within mammalian cells, MACHα1 or MACHβ1, fused with the FLAG octapeptide was expressed, together with HA epitope-tagged MORT1 molecules. ^35[S] metabolically labeled MACHα1 and MACHβ1 fused at their N-termini to the FLAG octapeptide (FLAG-MACHα1 and β1), and MORT1 fused at its N terminus to the HA epitope (Field et al, 1988) were expressed in HeLa cells. […] The proteins were analyzed by SDS-polyacrylamide gel electrophoresis (12% acrylamide), followed by autoradiography. […]

yeasts = test: Cytotoxic effect on transfected yeasts (yield of colonies); format: cell-based, yeast; details: decrease in the yield of colonies; activation domain vector
Description: To find out if MACHα1 can bind to MORT1, as does MACHβ1, the interaction of the proteins within transfected yeasts was first examined. […] This effect was manifested in a marked decrease in the yield of colonies in yeasts that expressed the protein in the activation domain (AD) vector (whose expression level is higher than that of the DNA binding domain (DBD) vector). On the other hand, […] in which the catalytic cysteine residue, Cys360, was replaced with Ser (MACHα1 (C360S)) was not cytotoxic to either mammalian cells (see below), or yeast. Like MACHβ1, MACHα1 (C360S) bound in tranfected yeast to MORT-1 and also to itself. It also bound to MACHβ1. […] The intensity of the lacZ-product color varied, however, among the yeast colonies; in yeasts tranfected with MACHα1 in both the AD and the DBD vectors no color product was observed, probably because of the cytotoxic effect of the wild-type MACHα1.

[1] = tested on: breast carcinoma MCF7 cells; test: Cell death on overexpression of MACH isoforms in MCF7 cells; format: cell-based, human; details: β-galactosidase-expressing cells with apoptopic morphology, 20 h after transfection
Method: To explore the involvement of MACH in cell-death induction, the effect of overexpression of various MACH isoforms on cell viability was examined. The test was performed by transfecting MACH expression vectors together with a β-galactosidase expression vector as a transfection marker into human embryonic kidney 293-EBNA cells and breast carcinoma MCF7 cells.
In brief, 293-EBNA cells, MCF7 human breast carcinoma cells and HeLa HtTA-1 cells were grown in Dulbecco's modified Eagle's minimal essential medium supplemented with 10% fetal calf serum, nonessential amino acids, 100 U/ml penicillin and 100 μg/ml streptomycin. Cell tissue culture dishes (5×10^5 293-EBNA cells, 3×10^5 s MCF7 cells or 3×10^5 HeLa cells in 6-cm dishes) were transiently transfected, using the calcium phosphate precipitation method, with the cDNAs of the indicated proteins together with the β-galactosidase expression vector. In the experiments presented in FIGS. 14A-D and 15, each dish was transfected with 3.5 μg of the indicated MACH construct and 1.5 μg of pSV-β-gal. In the experiments presented in FIGS. 16A-D and 17-19, each dish was transfected with 2.5 μg of the indicated MACH or MORT1 construct (or, as control, empty vector) and 1.5 μg of pSV-β-gal. The cells were rinsed 6 to 10 h after transfection. The 293-EBNA and MCF7 cells were incubated for a further 18 h without additional treatment. The HeLa cells were incubated for 26 h after transfection and-then for 5 h in the presence of either anti-Fas.APO1 antibody (CH11, 0.5 μg/ml) or TNF (100 ng/ml), together with cycloheximide (10 μg/ml). The extent of cell death at the end of the incubation periods was assessed by determination of β-galactosidase expression, as described by Kumar et al, 1994.
In particular, FIGS. 14A-D show the morphology of human embryonic kidney 293-EBNA cells transiently expressing the indicated MACH isoforms. The arrows (FIG. 14B) point to apoptopic cells. Photographs were taken 26 h after transfection. […] Data are from three independent experiments with the 293-EBNA cells and two independent experiments with the MCF7 cells.

Molecule | binding to co-expressed MORT1 (co-immunoprecipitation) (MORT1) | cytotoxic effect on yeasts (yeasts) | cell death of transfected MCF7 cells [1]
MACHα1: MACH isoform, cDNA SEQ ID NO: 14, amino acid SEQ ID NO: 7; contains CED3/ICE homology region | co-immunoprecipitated | significant cytotoxic effect | –
B1 | bound; also recorded: co-immunoprecipitated | – | some slight cell death
B2 | – | not cytotoxic | No death
